From paper PMC12311895, “Single-Molecule Protein Interactions and Unfolding Revealed by Plasmon-Enhanced Fluorescence” (Analytical Chemistry, 2025)
Where no end group is shown, it is not given here.

Biological target: T1, MBP-PDZ protein (Erbin PDZ) with a single cysteine, conjugated to DNA (UniProt Q96RT1 1321-1410, ATTO 532 (labelled with ATTO 532-NHS); amine-modified DNA oligonucleotide coupled through sulfo-SMCC to the single cysteine between MBP and PDZ)
T1 construct: stretch between MBP and the PDZ domain that holds the single introduced cysteine; Erbin PDZ domain; Held on DNA-coated 40 by 80 nm gold nanorods by DNA hybridisation; About 50% of the protein in the conjugation mixture carried no DNA; also called Erbin PDZ protein; PDZ-DNA; not shown: MBP, N-terminal, kept
Test: single-molecule plasmon-enhanced fluorescence microscopy (TIRF); MBP-PDZ held on gold nanorods (40 by 80 nm) by DNA hybridisation, particles immobilised on glass; ATTO 655-labeled peptide in solution; 637 nm laser; 20 ms exposure; koff from bright times (double exponential fit), kon from event frequency against proteins per particle
Conditions: both partners purified

Kd: 1 to 5.1 µM | kon: 1.2e+07 M⁻¹ s⁻¹
Binder: CGAGRGSIDTWV (also: ATTO 655 label (site not given here)) [ATTO 655-labeled target peptide]
